# Target: microtubules polymerised from bovine brain tubulin (bovine) (UniProt Q6B856)
# Experiment: TIRF microscopy of binding to immobilised microtubules
substance,measurement,value
augmin octamer lacking the N-terminal CH domain of Haus6 (residues 1-160) (from UniProt Q6DCY9;Q0IHJ3) (complex),reduction in MT binding against wildtype augmin,50%
